Results: patent publication US8697648B2, “Protein agent for diabetes treatment and β cell imaging” (Georgia State University Research Foundation, Inc., priority 2009, dated 2014)

Experiments:
[1] = tested on: CD-1 mice; test: Toxicity in healthy CD-1 mice; type: in vivo; settings: one or two doses of 100 μl (6 mM), 14 days
Description: One group of mice (7 mice per group) were injected with one dose of 100 μl of the agent (6 mM) and another group of animals were injected with two doses of the agent (100 μl of agent (6 mM)) with 8 hours time interval between the two injections. The animals were returned to their cages for 14 days. Among 14 tested mice, no mouse died. All animals behaved normally (no change in eating habits. No abnormal weight gain or loss. No abnormal appearance on fur).

[2] = tested on: RINm5F cells; test: Immunostaining binding analysis, RINm5F cells (GLP-1R expressed); type: cell-based, rat; settings: Cal.GLP 10 μM, calbindin D9k 50 μM, 37° C., 30 mins
Description: (§1) FIG. 10 is a series of digital images showing immunofluorescence staining of CHO or RINm5F cells that were treated by calbindin (50 μM) and Cal.GLP (10 μM). The cells were extensively washed after 30 min treatments under 37° C. in microscopic chamber slides and subsequently fixed. The cells were stained with the calbindin-specific antibody and visualized under confocal microscopy. The light shading represents antibody staining.
(§2) To examine whether the developed protein indeed interacted with GLP-1R, the binding of the fusion protein with two cell lines, RINm5F and CHO cells was examined. It is well known that GLP-1R is expressed in RINm5F but not in CHO cells. Both RINm5F and CHO cells were incubated with fusion protein Cal.GLP (10 μM) or calbindin D9k (50 μM) at 37° C. for 30 mins. After extensive washing, the cells were fixed and subjected to immunostaining analyses using a rabbit polyclonal antibody against parental protein calbindin D9k. […] Similar binding analyses were carried out with RINm5F cells and a […] (αTC1).

[3] = Stability to boiling; type: physicochemical; settings: boiling for 10 minutes
Description: This property led to a simplified one ion-exchange column chromatography procedure of protein purification. The bacterial lysate was boiled for 10 minutes. Most bacterial proteins were precipitated due to denaturing by boiling. The fusion protein stayed in supernatant. The protein was then further purified by an ion-exchange column. Approximately 30-50 mg purified fusion protein per liter of bacterial culture were obtained.

[4] = tested on: diabetic mice; test: Four week daily treatment, blood glucose and body weight (Example 19); type: in vivo; settings: 25 nmole/kg i.p. daily for 4 weeks
Description: (§3) Agents (indicated in the figures 25 nmole/kg) were administrated by i.p. at daily at the same time 2:00 pm for 4 weeks. The animals were returned to the ages. Blood samples (about 20 ml) were draw daily at 5:00 pm for 4 weeks. Glucose in blood samples was measured. Blood glucose levels were plotted against day. Animal body weight was weighed daily before drawing blood. Average body weight of each group of six mice was plotted against days.
as §3, with “The effects of the developed agent and PEGylated agents on blood glucose lowering in diabetic mice were examined in a four week treatment course. Agents” for “Agents”, “figures at” for “figures”, “i.p.” for “i.p. at”, “(−20 μl)” for “(about 20 ml)”

[5] = NMR and fluorescence spectrum analyses in different pH conditions; type: physicochemical; settings: pH 3, 5, 7, 9, 10
Description: FIG. 8 is a graph showing the fluorescence spectrum of the protein Cal.GLP (50 μM) at various pH values. The spectrum at each pH was compared to that of completely denatured Cal.GLP in 8M Urea.
(§4) The fusion protein Cal.GLP was incubated with 75% human serum for a time course (up to 48 hrs). The protein was then analyzed by SDS-PAGE and stained by coomassie blue.

[6] = tested on: diabetic mice; test: Blood glucose and glucose-dependent insulin secretion after co-administration with glucose (Example 16); type: in vivo; settings: 25 nmole/kg agent with 15 mmole/kg glucose i.p.
Description: FIG. 12 is a pair of graphs showing the changes in Δ blood glucose (Upper panel) and Δ insulin (bottom panel) in a group of 8 diabetic mice at different time points after injection of 15 mmole/kg of glucose with 25 nmole/kg of different agents.
The effects of the developed agent on blood glucose lowering and stimulating of the glucose-dependent insulin secretion in diabetic mice were also examined. The animals first fasted for 6 hours. The protein agent (25 nmole/kg) and glucose (15 mmole/kg) were co-administrated via intraperitoneal injection with a group of eight diabetic mice. The blood glucose and insulin levels were measured at different time points. As controls, the same dose of glucose was administrated alone and co-administrated with the parental protein calbindin in separate groups of diabetic mice.

[7] = tested on: CHO cells; test: Immunostaining binding analysis, CHO cells (no GLP-1R); type: cell-based; settings: Cal.GLP 10 μM, calbindin D9k 50 μM, 37° C., 30 mins
Description: as §1, §2

[8] = tested on: Diabetic mice (BKS.Cg-Lepr^db/db); test: Blood glucose lowering in fed diabetic mice (Example 15); type: in vivo
Description: The animals were re-feed for 25 minutes 5 hours after drug administration and 35 minutes before the last time point of blood sample collection. The A Blood Glucose (mg/dl) was determined by calculating the difference between the measured blood glucose levels at any given time point and the initial blood glucose levels. The initial blood glucose levels were measured after feeding for 20 min and before the drug administration (time zero). The error bars represent standard deviations of measurements of eight mice.
The developed protein agent was tested to determine whether it had the in vivo capability of lowering blood glucose in diabetic subjects. Diabetic mice (BKS.Cg-Lepr^db/db, The Jackson Laboratory) were used as test subjects. A group of six animals first fasted for 6 hours. After fasting, the animals were fed for 30 minutes. The protein agent was administered after feeding by intraperitoneal injection at a dose of 25 nmole/kg. The animals were fed again for 30 mins, 5 hrs after agent administration. Blood samples were taken at different time points after administration of the agent. Glucose concentration in the blood samples was measured using a commercially available kit.

[9] = Stability in 75% human serum (SDS-PAGE); type: in vitro ADME; settings: 48 hour
Description: FIG. 7 is a digital image of an SDS-PAGE analysis of serum stability of the fusion protein Cal.GLP. […] Cal.GLP was incubated with 75% human serum (S+CA) in […] at 37° C. for 1 hour (lane 3), 3 hours (lane 4), and 24 hours (lane 5). The mixture was separated by 16% SDS-PAGE and visualized by coomassie blue staining. Lane 1 is 75% human serum (S) and lane 2 is Cal.GLP only (CA). Lane M is molecular weight markers.
as §4

[10] = Protein serum stability test in mice serum (SDS-PAGE); type: in vitro ADME; settings: mice serum 1:1, 37° C., 24 hrs
Description: FIG. 5 is a digital image of a gel analysis of a protein serum stability test. A 16% SDS-PAGE without DTT was used to analysis the protein level after incubation with mice serum for certain time. Lane 1: mice serum only; Lane 2: fusion protein only; Lanes 3-5: fusion protein incubated with 50% serum for 1 hr, 3 hrs, and 24 hrs respectively; Lane 6: PEGylated protein only; Lanes 7-9: PEGylated protein incubated with 50% serum for 1 hr, 3 hrs, and 24 hrs respectively.
The fusion protein and PEGylated protein were incubated with mice serum at a ratio 1:1, in 37° C. for 1 hr, 3 hrs and 24 hrs. Samples were then analyzed by 16% SDS-PAGE.
The fusion protein and PEGylated protein were incubated with mice serum at a 1:1 ratio at 37° C. for 1 hr, 3 hrs, and overnight. SDS-PAGE was then used to analyze the protein stability.

[11] = tested on: αTC1 cells; test: Immunostaining binding analysis, αTC1 cells; type: cell-based
Description: as §2

B1: Cal.GLP: GLP-1 grafted into human calbindin D9k by replacing a C-terminal helix; SEQ ID NO: 14 (protein)
chain: MSTKKSPEELKRIFEKYAAKEGDPDQLSKDELKLLIQAEFPSLLKGPNTLDDLFQELDKNGHAEGTFTSDVSSYLEGQAAKEFIAWLVKGRG
modifications: Fusion protein Cal.GLP
acute toxicity [1]: did not have acute toxicity
mortality ([1]; 14 mice): no mouse died
binding to RINm5F cells [2]: bound to RINm5F cells
integrity and folding after boiling [3]: remained intact and folded
body weight change [4]: did not result significant weight gain or lose
lowering and stabilizing the blood glucose [4]: stronger effects in lowering and stabilizing the blood glucose
folding in different pH conditions [5]: remained folded in wide ranges of pH conditions
blood glucose lowering post glucose and drug administration [6]: dramatic blood glucose lowering
duration of increase in insulin and decrease in glucose [6]: ~2 h
glucose lowering and duration compared to exendin-4 [6]: larger glucose lowering in longer duration
binding to CHO cells [7]: not CHO cells
blood glucose decrease and effective time compared to exendin-4 ([8]; 25 nmole/kg i.p.): bigger blood glucose decrease and significantly longer effective time
drop of blood glucose levels ([8]; 25 nmole/kg i.p., 4 hour time course): about 215 mg/dl
blood glucose levels after re-feed ([8]; 6 hours post administration, one hour after re-feed): minor increase in blood glucose levels
integrity after incubation with human serum [9]: remained intact
degradation in mice serum [10]: no degradation
binding to αTC1 cells [11]: not to αTC1 cells
